Data from patent US20190330310A1 (VIB VZW, published 2019).

B2: ERN1-Tyk2(C)-HA (other)
chain: IFGSTSTVTLPETLLFVSTLDGSLHAVSKRTGSIKWTLKEDPVLQVPTHVEEPAFLPDPNDGSLYTLGSKNNEGLTKLPFTIPELVQASPCRSSDGILYMGKKQDIWYVIDLLTGEKQQTLSSAFADSLCPSTSLLYLGRTEYTITMYDTKTRELRWNATYFDYAASLPEDDVDYKMSHFVSNGDGLVVTVDSESGDVLWIQNYASPVVAFYVWQREGLRKVMHINVAVETLRYLTFMSGEVGRITKWKYPFPKETEAKSKLTPTLYVGKYSTSLYASPSMVHEGVAVVPRGSTLPLLEGPQTDGVTIGDKGECVITPSTDVKFDPGLKSKNKLNYLRNYWLLIGHHETPLSASTKMLERFPNNLPKHRENVIPADSEKKSFEEVINLVDQTSENAPTTVSRDVEEKPAHAPARPEAPVDSMLKDMATIILSTFLLIGWVAFIITYPLSMHQQQQLQHQQFQKELEKIQLLQQQQQQLPFHPPGDTAQDGELLDTSGPYSESSGTSSPSTSPRASNHSLCSGSSASKAGSSPSLEQDDGDEETSVVIVGKISFCPKDVLGHGAEGTIVYRGMFDNRDVAVKRILPECFSFADREVQLLRESDEHPNVIRYFCTEKDRQFQYIAIELCAATLQEYVEQKDFAHLGLEPITLLQQTTSGLAHLHSLNIVHRDLKPHNILISMPNAHGKIKAMISDFGLCKKLAVGRHSFSRRSGVPGTEGWIAPEMLSEDCKENPTYTVDIFSAGCVFYYVISEGSHPFGKSLQRQANILLGACSLDCLHPEKHEDVIARELIEKMIAMDPQKRPSAKHVLKHPFFWSLEKQLQFFQDVSDRIEKESLDGPIVKQLERGGRAVVKMDWRENITVPLQTDLRKFRTYKGGSVRDLLRAMRNKKHHYRELPAEVRETLGSLPDDFVCYFTSRFPHLLAHTYRAMELCSHERLFQPYYFHEPPEPQPPVTPDALAAAGGSITQLSHLGQGTRTNVYEGRLRVEGSGDPEEGKMDDEDPLVPGRDRGQELRVVLKVLDPSHHDIALAFYETASLMSQVSHTHLAFVHGVCVRGPENSMVTEYVEHGPLDVWLRRERGHVPMAWKMVVAQQLASALSYLENKNLVHGNVCGRNILLARLGLAEGTSPFIKLSDPGVGLGALSREERVERIPWLAPECLPGGANSLSTAMDKWGFGATLLEICFDGEAPLQSRSPSEKEHFYQRQHRLPEPSCPQLATLTSQCLTYEPTQRPSFRTILRDLTRVQPHNLADVLTVNRDSPAVGPTTFHKRYLKKIRDLGEGHFGKVSLYCYDPTNDGTGEMVAVKALKADCGPQHRSGWKQEIDILRTLYHEHIIKYKGCCEDQGEKSLQLVMEYVPLGSLRDYLPRHSIGLAQLLLFAQQICEGMAYLHAHDYIHRDLAARNVLLDNDRLVKIGDFGLAKAVPEGHEYYRVREDGDSPVFWYAPECLKEYKFYYASDVWSFGVTLYELLTHCDSSQSPPTKFLELIGIAQGQMTVLRLTELLERGERLPRPDKCPCEVYHLMKNCWETEASFRPTFENLIPILKTVHEKYQGQAPSVFSVCLEYPYDVPDYA
notes: Fusion protein expressed in transfected HEK293-T cells; also called ERN1-Tyk2-HA; ERN1-Tyk2(C) fusion construct

What was measured:
HA-Tyk2(C)-SERT = target: T1, HA-Tyk2(C)-SERT (human); assay: luciferase reporter interaction assay in HEK293-T cells
T1 construct: Fusion protein expressed in transfected HEK293-T cells; also called pSVSport-HA-Tyk2(C)-SERT; SERT kinase fusion construct

HA-Tyk2(C)-RTp66 = target: T2, HA-Tyk2(C)-RTp66 (HIV-1); assay: as above
T2 construct: also called pSVSport-HA-Tyk2(C)-RTp66; RTp66 kinase fusion construct

[1] = target: T3, unfused gp130 receptor fragment (pMG1) (human, UniProt P40189 760-918); assay: luciferase reporter interaction assay in HEK293-T cells, tunicamycin 0-0.5-1-2 µg/ml
T3 construct: Negative control prey; also called empty prey
T3 sequence: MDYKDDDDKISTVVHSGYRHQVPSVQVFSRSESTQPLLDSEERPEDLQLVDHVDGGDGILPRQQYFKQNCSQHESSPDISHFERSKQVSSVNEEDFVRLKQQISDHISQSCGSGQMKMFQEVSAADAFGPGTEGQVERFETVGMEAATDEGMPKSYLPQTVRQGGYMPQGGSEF
Procedure: In a first experiment, cells were transfected with the following combinations of plasmids (500 ng of the kinase fusion construct, 100 ng of the gp130 fusion construct and 50 ng of the luciferase reporter construct) according to the methods described above:
After transfection, cells were treated with 0-0.5-1-2 μg/ml tunicamycin, final concentration.

ERN1(K599A)-Tyk2(C)-HA = target: T4, ERN1(K599A)-Tyk2(C)-HA (human); assay: luciferase reporter interaction assay in HEK293-T cells, vehicle or 1 µg/ml tunicamycin
T4 construct: also called pcDNA5/FRT/TO-ERN1(K599A)-Tyk2(C)-HA
Procedure: (§1) After transfection, cells were either vehicle (DMSO) treated or treated with 1 μg/ml tunicamycin (final concentration).

ERN1(D123P)-Tyk2(C)-HA = target: T5, ERN1(D123P)-Tyk2(C)-HA (human); assay: as above
T5 construct: Mutation in the luminal domain of ERN1; also called pcDNA5/FRT/TO-ERN1(D123P)-Tyk2(C)-HA; ERN1(D123P)-Tyk2(K)-HA
Procedure: as §1

ERN1-Tyk2(C)-HA = target: B2; assay: luciferase reporter interaction assay in HEK293-T cells, tunicamycin 0-0.04-0.2-1-5 µg/ml
Procedure: After transfection, cells were treated with 0-0.04-0.2-1-5 μg/ml tunicamycin, final concentration. The luciferase data are presented as fold induction relative to the signal obtained in cells transfected with unfused gp130 (empty prey; transfection a) and treated with the same concentration tunicamycin. Expression of the different fusion proteins was confirmed using Western blot.

B1: flag tag-gp130-VAMP1 (other)
chain: MDYKDDDDKISTVVHSGYRHQVPSVQVFSRSESTQPLLDSEERPEDLQLVDHVDGGDGILPRQQYFKQNCSQHESSPDISHFERSKQVSSVNEEDFVRLKQQISDHISQSCGSGQMKMFQEVSAADAFGPGTEGQVERFETVGMEAATDEGMPKSYLPQTVRQGGYMPQGGSELSTSLYKKVGMSAPAQPPAEGTEGTAPGGGPPGPPPNMTSNRRLQQTQAQVEEVVDIIRVNVDKVLERDQKLSELDDRADALQAGASQFESSAAKLKRKYWWKNCKMMIMLGAICAIIVVVIVSKYRCPTFLYKVV
notes: also called pMG1-VAMP1; VAMP1 gp130 fusion construct
binding result (HA-Tyk2(C)-SERT): binds
binding result (HA-Tyk2(C)-RTp66): no binding

B2
binding result [1]: no binding

B3: flag tag-ERN1-gp130 (other)
chain: IFGSTSTVTLPETLLFVSTLDGSLHAVSKRTGSIKWTLKEDPVLQVPTHVEEPAFLPDPNDGSLYTLGSKNNEGLTKLPFTIPELVQASPCRSSDGILYMGKKQDIWYVIDLLTGEKQQTLSSAFADSLCPSTSLLYLGRTEYTITMYDTKTRELRWNATYFDYAASLPEDDVDYKMSHFVSNGDGLVVTVDSESGDVLWIQNYASPVVAFYVWQREGLRKVMHINVAVETLRYLTFMSGEVGRITKWKYPFPKETEAKSKLTPTLYVGKYSTSLYASPSMVHEGVAVVPRGSTLPLLEGPQTDGVTIGDKGECVITPSTDVKFDPGLKSKNKLNYLRNYWLLIGHHETPLSASTKMLERFPNNLPKHRENVIPADSEKKSFEEVINLVDQTSENAPTTVSRDVEEKPAHAPARPEAPVDSMLKDMATIILSTFLLIGWVAFIITYPLSMHQQQQLQHQQFQKELEKIQLLQQQQQQLPFHPPGDTAQDGELLDTSGPYSESSGTSSPSTSPRASNHSLCSGSSASKAGSSPSLEQDDGDEETSVVIVGKISFCPKDVLGHGAEGTIVYRGMFDNRDVAVKRILPECFSFADREVQLLRESDEHPNVIRYFCTEKDRQFQYIAIELCAATLQEYVEQKDFAHLGLEPITLLQQTTSGLAHLHSLNIVHRDLKPHNILISMPNAHGKIKAMISDFGLCKKLAVGRHSFSRRSGVPGTEGWIAPEMLSEDCKENPTYTVDIFSAGCVFYYVISEGSHPFGKSLQRQANILLGACSLDCLHPEKHEDVIARELIEKMIAMDPQKRPSAKHVLKHPFFWSLEKQLQFFQDVSDRIEKESLDGPIVKQLERGGRAVVKMDWRENITVPLQTDLRKFRTYKGGSVRDLLRAMRNKKHHYRELPAEVRETLGSLPDDFVCYFTSRFPHLLAHTYRAMELCSHERLFQPYYFHEPPEPQPPVTPDALSRGSGGSGGSTVVHSGYRHQVPSVQVFSRSESTQPLLDSEERPEDLQLVDHVDGGDGILPRQQYFKQNCSQHESSPDISHFERSKQVSSVNEEDFVRLKQQISDHISQSCGSGQMKMFQEVSAADAFGPGTEGQVERFETVGMEAATDEGMPKSYLPQTVRQGGYMPQGGSELSTSLYKKAGYLPQTVRQGGYMPQ
notes: Fusion protein expressed in transfected HEK293-T cells; also called ERN1-gp130 fusion construct; pMG2C-ERN1
binding result (ERN1(K599A)-Tyk2(C)-HA): no binding
binding result (ERN1(D123P)-Tyk2(C)-HA): no binding

B4: flag-tag-ERN1cyt-gp130 (other)
chain: MDYKDDDDKISEFFCPKDVLGHGAEGTIVYRGMFDNRDVAVKRILPECFSFADREVQLLRESDEHPNVIRYFCTEKDRQFQYIAIELCAATLQEYVEQKDFAHLGLEPITLLQQTTSGLAHLHSLNIVHRDLKPHNILISMPNAHGKIKAMISDFGLCKKLAVGRHSFSRRSGVPGTEGWIAPEMLSEDCKENPTYTVDIFSAGCVFYYVISEGSHPFGKSLQRQANILLGACSLDCLHPEKHEDVIARELIEKMIAMDPQKRPSAKHVLKHPFFWSLEKQLQFFQDVSDRIEKESLDGPIVKQLERGGRAVVKMDWRENITVPLQTDLRKFRTYKGGSVRDLLRAMRNKKHHYRELPAEVRETLGSLPDDFVCYFTSRFPHLLAHTYRAMELCSHERLFQPYYFHEPPEPQPPVTPDALPSRGSGGSGGSTVVHSGYRHQVPSVQVFSRSESTQPLLDSEERPEDLQLVDHVDGGDGILPRQQYFKQNCSQHESSPDISHFERSKQVSSVNEEDFVRLKQQISDHISQSCGSGQMKMFQEVSAADAFGPGTEGQVERFETVGMEAATDEGMPKSYLPQTVRQGGYMPQGGSELSTSLYKKAGYLPQTVRQGGYMPQ
notes: also called pMG2C-ERN1cyt; gp130 fusion containing only the cytoplasmic portion of ERN1
binding result (ERN1-Tyk2(C)-HA): no binding
